Reference: patent US20240024490A1, “BIFUNCTIONAL MOLECULES FOR SELECTIVE MODIFICATION OF TARGET SUBSTRATES” (The Broad Institute, Inc., priority 2021, published 2024)

Biological target: SmBiT fused to the N-terminus of BCR-ABL
Assay: NanoBiT split-luciferase complementation in cells, LgBiT and SmBiT at the N-terminus of BCR-ABL; complex induced by a homo-bifunctional small molecule (homo-PHICS)

LgBiT fused to the N-terminus of BCR-ABL (enzyme)
fold increase in luminescence compared to the DMSO/background: 6 fold
